In patent publication US20230357348A1 (AstraZeneca / MedImmune, published 2023):
Starred links: 1 amine or outer side, 2 acyl side, 3 side chain; linkers in the order of their positions; H or OH if unused. Non-standard residues stand in square brackets, D forms with d. Groups on a side chain read outwards from the residue. No end group written: not given here. *: point of attachment. C20 diacid = O=C(O)CCCCCCCCCCCCCCCCCCC(=O)*; C18 diacid = O=C(O)CCCCCCCCCCCCCCCCC(=O)*; γGlu = O=C(O)[C@H](CCC(=O)[*:2])N[*:1]; αMeF = C[C@](N)(Cc1ccccc1)C(=O)O; AEEA = NCCOCCOCC(=O)O; Aib = CC(C)(N)C(=O)O

Legend:
[1] = target: human GLP-1 receptor (hGLP-1R) (human, UniProt P43220 24-463); assay: cell-based or functional assay
[2] = target: human glucagon receptor (hGCGR) (human, UniProt P47871 26-477); assay: cell-based or functional assay
human glucagon receptor (hGCGR), sequence (P47871 26-477): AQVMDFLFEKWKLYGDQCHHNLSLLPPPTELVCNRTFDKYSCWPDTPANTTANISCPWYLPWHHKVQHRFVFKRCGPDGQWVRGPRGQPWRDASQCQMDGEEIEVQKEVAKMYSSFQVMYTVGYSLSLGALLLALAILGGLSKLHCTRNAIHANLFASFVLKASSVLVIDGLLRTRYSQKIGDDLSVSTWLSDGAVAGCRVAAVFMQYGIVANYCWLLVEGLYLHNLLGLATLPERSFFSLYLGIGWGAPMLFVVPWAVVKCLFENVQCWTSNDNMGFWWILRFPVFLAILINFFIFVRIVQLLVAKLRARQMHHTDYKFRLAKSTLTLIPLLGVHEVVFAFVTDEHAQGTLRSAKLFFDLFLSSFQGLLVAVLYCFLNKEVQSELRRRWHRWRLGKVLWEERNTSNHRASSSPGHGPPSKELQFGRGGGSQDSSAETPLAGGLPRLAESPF

Row | hGLP-1R EC50 (pM) [1] | hGluc-R EC50 (pM) [2] | Binder
1 | 73.6 pM | 232 pM | H[Aib]QGTFTSDVSK[αMeF]LDTK([AEEA-AEEA-γGlu-C18 diacid])RARDFVRWLL[Aib]TE-OH (N-terminus assumed; SMILES CC(C)C[C@H](NC(=O)[C@H](Cc1c[nH]c2ccccc12)NC(=O)[C@H](CCCNC(=N)N)NC(=O)[C@@H](NC(=O)[C@H](Cc1ccccc1)NC(=O)[C@H](CC(=O)O)NC(=O)[C@H](CCCNC(=N)N)NC(=O)[C@H](C)NC(=O)[C@H](CCCNC(=N)N)NC(=O)[C@H](CCCCNC(=O)COCCOCCNC(=O)COCCOCCNC(=O)CC[C@H](NC(=O)CCCCCCCCCCCCCCCCC(=O)O)C(=O)O)NC(=O)[C@@H](NC(=O)[C@H](CC(=O)O)NC(=O)[C@H](CC(C)C)NC(=O)[C@](C)(Cc1ccccc1)NC(=O)[C@H](CCCCN)NC(=O)[C@H](CO)NC(=O)[C@@H](NC(=O)[C@H](CC(=O)O)NC(=O)[C@H](CO)NC(=O)[C@@H](NC(=O)[C@H](Cc1ccccc1)NC(=O)[C@@H](NC(=O)CNC(=O)[C@H](CCC(N)=O)NC(=O)C(C)(C)NC(=O)[C@@H](N)Cc1c[nH]cn1)[C@@H](C)O)[C@@H](C)O)C(C)C)[C@@H](C)O)C(C)C)C(=O)N[C@@H](CC(C)C)C(=O)NC(C)(C)C(=O)N[C@H](C(=O)N[C@@H](CCC(=O)O)C(=O)O)[C@@H](C)O) [Peptide 491]
2 | 69 pM | 396 pM | H[Aib]QGTFTSDVSK[αMeF]LDTK([AEEA-AEEA-γGlu-C20 diacid])RARDFVQWLL[Aib]TE-NH2 (N-terminus assumed; SMILES CC(C)C[C@H](NC(=O)[C@H](Cc1c[nH]c2ccccc12)NC(=O)[C@H](CCC(N)=O)NC(=O)[C@@H](NC(=O)[C@H](Cc1ccccc1)NC(=O)[C@H](CC(=O)O)NC(=O)[C@H](CCCNC(=N)N)NC(=O)[C@H](C)NC(=O)[C@H](CCCNC(=N)N)NC(=O)[C@H](CCCCNC(=O)COCCOCCNC(=O)COCCOCCNC(=O)CC[C@H](NC(=O)CCCCCCCCCCCCCCCCCCC(=O)O)C(=O)O)NC(=O)[C@@H](NC(=O)[C@H](CC(=O)O)NC(=O)[C@H](CC(C)C)NC(=O)[C@](C)(Cc1ccccc1)NC(=O)[C@H](CCCCN)NC(=O)[C@H](CO)NC(=O)[C@@H](NC(=O)[C@H](CC(=O)O)NC(=O)[C@H](CO)NC(=O)[C@@H](NC(=O)[C@H](Cc1ccccc1)NC(=O)[C@@H](NC(=O)CNC(=O)[C@H](CCC(N)=O)NC(=O)C(C)(C)NC(=O)[C@@H](N)Cc1c[nH]cn1)[C@@H](C)O)[C@@H](C)O)C(C)C)[C@@H](C)O)C(C)C)C(=O)N[C@@H](CC(C)C)C(=O)NC(C)(C)C(=O)N[C@H](C(=O)N[C@@H](CCC(=O)O)C(N)=O)[C@@H](C)O) [Peptide 490]
3 | 22.8 pM | 168 pM | H[Aib]QGTFTSDVSK[αMeF]LDTK([AEEA-AEEA-γGlu-C18 diacid])RARDFVQWLL[Aib]TE-NH2 (N-terminus assumed; SMILES CC(C)C[C@H](NC(=O)[C@H](Cc1c[nH]c2ccccc12)NC(=O)[C@H](CCC(N)=O)NC(=O)[C@@H](NC(=O)[C@H](Cc1ccccc1)NC(=O)[C@H](CC(=O)O)NC(=O)[C@H](CCCNC(=N)N)NC(=O)[C@H](C)NC(=O)[C@H](CCCNC(=N)N)NC(=O)[C@H](CCCCNC(=O)COCCOCCNC(=O)COCCOCCNC(=O)CC[C@H](NC(=O)CCCCCCCCCCCCCCCCC(=O)O)C(=O)O)NC(=O)[C@@H](NC(=O)[C@H](CC(=O)O)NC(=O)[C@H](CC(C)C)NC(=O)[C@](C)(Cc1ccccc1)NC(=O)[C@H](CCCCN)NC(=O)[C@H](CO)NC(=O)[C@@H](NC(=O)[C@H](CC(=O)O)NC(=O)[C@H](CO)NC(=O)[C@@H](NC(=O)[C@H](Cc1ccccc1)NC(=O)[C@@H](NC(=O)CNC(=O)[C@H](CCC(N)=O)NC(=O)C(C)(C)NC(=O)[C@@H](N)Cc1c[nH]cn1)[C@@H](C)O)[C@@H](C)O)C(C)C)[C@@H](C)O)C(C)C)C(=O)N[C@@H](CC(C)C)C(=O)NC(C)(C)C(=O)N[C@H](C(=O)N[C@@H](CCC(=O)O)C(N)=O)[C@@H](C)O) [Peptide 489]

The next lines start with the binder.

Row | Binder | hGLP-1R EC50 (pM) [1] | hGluc-R EC50 (pM) [2]
4 | H[Aib]QGTFTSDVSK[αMeF]LDTK([AEEA-AEEA-γGlu-C20 diacid])RAQDFVQWLL[Aib]E-NH2 (N-terminus assumed; SMILES CC(C)C[C@H](NC(=O)[C@H](Cc1c[nH]c2ccccc12)NC(=O)[C@H](CCC(N)=O)NC(=O)[C@@H](NC(=O)[C@H](Cc1ccccc1)NC(=O)[C@H](CC(=O)O)NC(=O)[C@H](CCC(N)=O)NC(=O)[C@H](C)NC(=O)[C@H](CCCNC(=N)N)NC(=O)[C@H](CCCCNC(=O)COCCOCCNC(=O)COCCOCCNC(=O)CC[C@H](NC(=O)CCCCCCCCCCCCCCCCCCC(=O)O)C(=O)O)NC(=O)[C@@H](NC(=O)[C@H](CC(=O)O)NC(=O)[C@H](CC(C)C)NC(=O)[C@](C)(Cc1ccccc1)NC(=O)[C@H](CCCCN)NC(=O)[C@H](CO)NC(=O)[C@@H](NC(=O)[C@H](CC(=O)O)NC(=O)[C@H](CO)NC(=O)[C@@H](NC(=O)[C@H](Cc1ccccc1)NC(=O)[C@@H](NC(=O)CNC(=O)[C@H](CCC(N)=O)NC(=O)C(C)(C)NC(=O)[C@@H](N)Cc1c[nH]cn1)[C@@H](C)O)[C@@H](C)O)C(C)C)[C@@H](C)O)C(C)C)C(=O)N[C@@H](CC(C)C)C(=O)NC(C)(C)C(=O)N[C@@H](CCC(=O)O)C(N)=O) [Peptide 485] | 219 pM | 90.4 pM
5 | H[Aib]QGTFTSDVSK[αMeF]LDTK([AEEA-AEEA-γGlu-C20 diacid])RARDFVQWLL[Aib]TE-OH (N-terminus assumed; SMILES CC(C)C[C@H](NC(=O)[C@H](Cc1c[nH]c2ccccc12)NC(=O)[C@H](CCC(N)=O)NC(=O)[C@@H](NC(=O)[C@H](Cc1ccccc1)NC(=O)[C@H](CC(=O)O)NC(=O)[C@H](CCCNC(=N)N)NC(=O)[C@H](C)NC(=O)[C@H](CCCNC(=N)N)NC(=O)[C@H](CCCCNC(=O)COCCOCCNC(=O)COCCOCCNC(=O)CC[C@H](NC(=O)CCCCCCCCCCCCCCCCCCC(=O)O)C(=O)O)NC(=O)[C@@H](NC(=O)[C@H](CC(=O)O)NC(=O)[C@H](CC(C)C)NC(=O)[C@](C)(Cc1ccccc1)NC(=O)[C@H](CCCCN)NC(=O)[C@H](CO)NC(=O)[C@@H](NC(=O)[C@H](CC(=O)O)NC(=O)[C@H](CO)NC(=O)[C@@H](NC(=O)[C@H](Cc1ccccc1)NC(=O)[C@@H](NC(=O)CNC(=O)[C@H](CCC(N)=O)NC(=O)C(C)(C)NC(=O)[C@@H](N)Cc1c[nH]cn1)[C@@H](C)O)[C@@H](C)O)C(C)C)[C@@H](C)O)C(C)C)C(=O)N[C@@H](CC(C)C)C(=O)NC(C)(C)C(=O)N[C@H](C(=O)N[C@@H](CCC(=O)O)C(=O)O)[C@@H](C)O) [Peptide 488] | 202 pM | 301 pM
6 | H[Aib]QGTFTSDVSK[αMeF]LDLK([AEEA-AEEA-γGlu-C20 diacid])RAQDFVRWLL[Aib]E-OH (N-terminus assumed; SMILES CC(C)C[C@H](NC(=O)[C@H](CC(=O)O)NC(=O)[C@H](CC(C)C)NC(=O)[C@](C)(Cc1ccccc1)NC(=O)[C@H](CCCCN)NC(=O)[C@H](CO)NC(=O)[C@@H](NC(=O)[C@H](CC(=O)O)NC(=O)[C@H](CO)NC(=O)[C@@H](NC(=O)[C@H](Cc1ccccc1)NC(=O)[C@@H](NC(=O)CNC(=O)[C@H](CCC(N)=O)NC(=O)C(C)(C)NC(=O)[C@@H](N)Cc1c[nH]cn1)[C@@H](C)O)[C@@H](C)O)C(C)C)C(=O)N[C@@H](CCCCNC(=O)COCCOCCNC(=O)COCCOCCNC(=O)CC[C@H](NC(=O)CCCCCCCCCCCCCCCCCCC(=O)O)C(=O)O)C(=O)N[C@@H](CCCNC(=N)N)C(=O)N[C@@H](C)C(=O)N[C@@H](CCC(N)=O)C(=O)N[C@@H](CC(=O)O)C(=O)N[C@@H](Cc1ccccc1)C(=O)N[C@H](C(=O)N[C@@H](CCCNC(=N)N)C(=O)N[C@@H](Cc1c[nH]c2ccccc12)C(=O)N[C@@H](CC(C)C)C(=O)N[C@@H](CC(C)C)C(=O)NC(C)(C)C(=O)N[C@@H](CCC(=O)O)C(=O)O)C(C)C) [Peptide 486] | 420 pM | 166 pM
7 | H[Aib]QGTFTSDVSK[αMeF]LDTK([AEEA-AEEA-γGlu-C18 diacid])RARDFVQWLL[Aib]TE-OH (N-terminus assumed; SMILES CC(C)C[C@H](NC(=O)[C@H](Cc1c[nH]c2ccccc12)NC(=O)[C@H](CCC(N)=O)NC(=O)[C@@H](NC(=O)[C@H](Cc1ccccc1)NC(=O)[C@H](CC(=O)O)NC(=O)[C@H](CCCNC(=N)N)NC(=O)[C@H](C)NC(=O)[C@H](CCCNC(=N)N)NC(=O)[C@H](CCCCNC(=O)COCCOCCNC(=O)COCCOCCNC(=O)CC[C@H](NC(=O)CCCCCCCCCCCCCCCCC(=O)O)C(=O)O)NC(=O)[C@@H](NC(=O)[C@H](CC(=O)O)NC(=O)[C@H](CC(C)C)NC(=O)[C@](C)(Cc1ccccc1)NC(=O)[C@H](CCCCN)NC(=O)[C@H](CO)NC(=O)[C@@H](NC(=O)[C@H](CC(=O)O)NC(=O)[C@H](CO)NC(=O)[C@@H](NC(=O)[C@H](Cc1ccccc1)NC(=O)[C@@H](NC(=O)CNC(=O)[C@H](CCC(N)=O)NC(=O)C(C)(C)NC(=O)[C@@H](N)Cc1c[nH]cn1)[C@@H](C)O)[C@@H](C)O)C(C)C)[C@@H](C)O)C(C)C)C(=O)N[C@@H](CC(C)C)C(=O)NC(C)(C)C(=O)N[C@H](C(=O)N[C@@H](CCC(=O)O)C(=O)O)[C@@H](C)O) [Peptide 487] | 65.5 pM | 164 pM
